Laboratory results as given in article PMC4161250.

Substrate: O=[N+]([O-])c1ccc(OP(=O)(O)O)cc1
Experiment: purified protein
Details: 2 mM Mn2+, 50 mM Tris-HCl pH 8.0, 37 °C

B1: StpA (Enterococcus faecium DO) (protein)
chain: MQIEYQSDVGRRRNTNQDYASVFTSRSGLKLAVLADGMGGHRAGDIASQMAVTNLGEAWEKQEAVDDEKIAQWFIQSIQEENMLIYQRGQEQPEYNGMGTTIVAAALSDDWFTIANVGDSRAYLIREDKIMQLTEDHSLVNELVKSGEISEEMAVNHPRKNILTRSVGMPGTVEVDVSTHLWQLKDRLLLCSDGLTNMLSEEEIGTIINQEGPLSHKVTELIDRANEAGGADNITVLLIEYKEDSV
Km: 660 ± 90 µM | kcat: 1,200 ± 100 min^-1 | kcat/Km: 30000 ± 4830 M⁻¹ s⁻¹
